{
  "source": "patent US20210063414A1",
  "about": "“METHODS FOR PREVENTING AND/OR TREATING BONE LOSS CONDITIONS BY MODULATING IRISIN” (Dana-Farber Cancer Institute, Inc., priority 2018, published 2021)",
  "assay_in_all_cases": "Crosslinking/co-immunoprecipitation/mass spectrometry (TMT quantitative proteomics) to identify irisin receptors",
  "format_in_all_cases": "binding",
  "key": {"[1]": {"biological_target": "T1, MLO-Y4 cell surface proteins (Mus musculus, UniProt Q921N7)", "T1 construct": "endogenous in cells; host or cells: MLO-Y4", "T1 sequence (Q921N7 78-253)": "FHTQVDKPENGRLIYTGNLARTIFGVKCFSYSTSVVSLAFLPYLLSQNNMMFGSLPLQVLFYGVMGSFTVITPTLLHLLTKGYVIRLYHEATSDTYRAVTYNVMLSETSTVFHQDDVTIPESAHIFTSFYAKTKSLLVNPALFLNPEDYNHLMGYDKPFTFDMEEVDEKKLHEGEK", "details": "co-precipitated protein Tmem70 (TMM70_MOUSE)", "outline": "(§1)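 Relative protein abundance came from 6-plex TMT MS3 quantitation on an Orbitrap Fusion Lumos, after in-gel trypsin digestion of Coomassie-stained SDS-PAGE lanes. Input was a Ni-NTA pulldown (250 mM imidazole elution) of lysates from murine MLO-Y4 cells. These cells were treated on ice with His-tagged irisin or adipsin (10 nM, 20 min) in serum-free medium, then crosslinked with 1.5 mM DTSSP for 30 min.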"}, "[2]": {"biological_target": "T2, MLO-Y4 cell surface proteins (Mus musculus, UniProt P55292)", "T2 construct": "endogenous in cells; host or cells: MLO-Y4", "T2 sequence (P55292 136-902)": "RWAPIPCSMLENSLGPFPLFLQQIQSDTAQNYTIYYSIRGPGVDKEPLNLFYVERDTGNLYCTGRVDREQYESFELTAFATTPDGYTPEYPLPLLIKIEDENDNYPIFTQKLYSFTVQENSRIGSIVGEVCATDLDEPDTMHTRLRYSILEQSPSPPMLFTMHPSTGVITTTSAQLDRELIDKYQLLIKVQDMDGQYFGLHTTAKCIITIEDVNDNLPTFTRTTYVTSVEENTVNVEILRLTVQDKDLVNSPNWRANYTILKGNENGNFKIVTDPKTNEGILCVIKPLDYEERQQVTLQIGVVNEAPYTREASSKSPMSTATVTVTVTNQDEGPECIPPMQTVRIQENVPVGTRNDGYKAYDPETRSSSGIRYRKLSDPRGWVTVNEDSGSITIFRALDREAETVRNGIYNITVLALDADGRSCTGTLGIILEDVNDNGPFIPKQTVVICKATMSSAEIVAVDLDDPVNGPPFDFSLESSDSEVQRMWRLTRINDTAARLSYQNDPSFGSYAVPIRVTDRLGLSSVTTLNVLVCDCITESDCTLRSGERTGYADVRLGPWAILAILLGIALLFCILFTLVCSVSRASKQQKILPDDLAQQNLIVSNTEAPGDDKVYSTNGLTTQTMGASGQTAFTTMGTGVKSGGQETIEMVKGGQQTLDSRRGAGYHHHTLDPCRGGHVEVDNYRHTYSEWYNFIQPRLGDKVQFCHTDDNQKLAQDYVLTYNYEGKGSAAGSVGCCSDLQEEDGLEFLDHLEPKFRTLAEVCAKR", "details": "co-precipitated protein Dsc2 (DSC2_MOUSE)", "outline": "as §1"}, "[3]": {"biological_target": "T3, MLO-Y4 cell surface proteins (Mus musculus, UniProt P56567)", "T3 construct": "endogenous in cells; host or cells: MLO-Y4", "T3 sequence (P56567 1-97)": "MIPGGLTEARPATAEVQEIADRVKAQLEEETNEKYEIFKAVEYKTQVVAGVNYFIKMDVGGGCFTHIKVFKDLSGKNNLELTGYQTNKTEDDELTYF", "details": "co-precipitated protein Csta (CYTA_MOUSE)", "outline": "as §1"}, "[4]": {"biological_target": "T4, MLO-Y4 cell surface proteins (Mus musculus, UniProt P62960)", "T4 construct": "endogenous in cells; host or cells: MLO-Y4", "T4 sequence (P62960 whole entry)": "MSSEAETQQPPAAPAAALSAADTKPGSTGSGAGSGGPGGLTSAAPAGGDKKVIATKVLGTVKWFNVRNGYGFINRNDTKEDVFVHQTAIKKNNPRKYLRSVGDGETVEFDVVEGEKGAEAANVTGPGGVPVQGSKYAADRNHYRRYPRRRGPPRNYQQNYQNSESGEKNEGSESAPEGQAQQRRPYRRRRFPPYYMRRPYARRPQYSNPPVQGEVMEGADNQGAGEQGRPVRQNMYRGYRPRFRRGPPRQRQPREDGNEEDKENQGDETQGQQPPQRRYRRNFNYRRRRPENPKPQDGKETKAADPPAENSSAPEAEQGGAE", "details": "co-precipitated protein Ybx1 (YBOX1_MOUSE)", "outline": "as §1"}},
  "data": [
    {"substance": "adipsin", "values": [
      {"measurement": "TMT signal-to-noise ratio", "setting": "[1]", "value": 88.4078},
      {"measurement": "TMT signal-to-noise ratio", "setting": "[2]", "value": 93.7977},
      {"measurement": "TMT signal-to-noise ratio", "setting": "[3]", "value": 160.416},
      {"measurement": "TMT signal-to-noise ratio", "setting": "[4]", "value": 219.172}
    ]}
  ]
}
